The record followed here is the nanobody polyreactivity screen of Harvey et al. (2022).

The series can be described thus: yeast display, Sf9 membrane polyspecificity reagent, FACS + sequencing; frameworks hold sequencing errors. The method, boiled down:
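Nanobodies from a synthetic yeast display library (Saccharomyces cerevisiae BJ5465), induced 36–48 hours with galactose, were stained 1 hour at 4 °C with 10% biotinylated, detergent-solubilized Sf9 membrane reagent, enriched on streptavidin microbeads, then FACS-sorted. Anti-HA (expression) and streptavidin (reagent binding) fluorescence set low and high (top ~1%) gates. Polyreactivity labels come from the gate of origin. Genes were colony-PCR amplified, MiSeq 2 × 250 sequenced and filtered by CDR length.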
Take “QVQLVESGGGLVQAGGSLRLSCAASGSTFAFNAMGWYRQAPGKERELVAGITRSGGRTYFADSVKGRFTISRDYAKNTVYLQMNSLKPEDTAVYYCAARRSGSKSGLFDYWGQGTQVTVSS”: the “polyreactivity (PSR sort gate)” value is on record as “low polyreactivity”.

As to “QVQLVESGGGLVQAGGSLRLSCAASGSIFKGNAMGWYRQAPRKERELVATITSSGDSTNYADSVKGRFTISRDNAKNTVYLQMNSLKPEDTAVYYCATEPFRYSLAGGYWGQGTQVTVSS”, the “polyreactivity (PSR sort gate)” value is on record as “low polyreactivity”. With “QVQLVESGGGLVQAGGSLRLSCAASGSIFSIYAMGWYRQAPGKERELVAAINWIGTSTYYADSVKGRFTISRDNAKNTVYLQMNSLKPEDTAVYYCAAVSRRVSPYLSARDYCGQGTQVTVSS”, the “polyreactivity (PSR sort gate)” value is “high polyreactivity”. Under “QVQLVESVGGLVQAGGSLRLSCAASVRTFYNYSMGWYRQAPGKERELVAGISRRGGSTYYADSVKGRFTISRDNAKNTVYLQMNSLKPEDTAVYYCIEDLVRPGYYRYDYRGQGTQVTVSS” stands “high polyreactivity”; under “QVQLLVTGGGLVQAGGTLRISCAASGSIFYSYAMGWYRQSPGKERELVAAITGGGSTNYADSVKGRFTISLDNAKNTVYLQMNSLKPEDTAVYYCATDLYPIGAVIRYDYWGQGTQVTVSS”, “low polyreactivity”. “QVQLVESGGGLVQAGGSLRLSCAASGFTFGSYAMGWYRQAPGKEREFVAAIRRSGSSTYYADSVKGRFTISRDNAKNTVYLQMTSLKPEDTAVYYCAADVYRRLRRYRYYYWGQGTQVTVSS”: the “polyreactivity (PSR sort gate)” value is “low polyreactivity”. Turning to “QVQLQESRGGLVQAGGSLRLSCAASGTISDRAGMGWYRQAPAKNAIVATIDRGTNTNYADSVKGRFTISRDNAKNTVYLQMNSLKPEDTAVYNCAADGRYYIYLDYWGQGTQVTVSS”, the “polyreactivity (PSR sort gate)” value is reported as “low polyreactivity”. For “QVQLVESGGRLVKAGGSLRLSCAASGRNFFYYTMAWYRQAPGKERELVATISWRGGSTYYADSVKGRFTFSRDNAKNTDYLLMNSLKPEETAVYYCAARYRCRYDSWGQGTQVTVSS”, the “polyreactivity (PSR sort gate)” value is recorded as “high polyreactivity”. Under “QVQLVESGGGLVQAGGSLRLSCAASGRSIKYYAMGWYRQAPGKERELVAAIRSTGGSTYYADSVKGRFTISRDNAKNTVYLQMNSLKPEDTAVYYCNARRYPRYVFSRYVYWGQGTQVNVSS” stands “high polyreactivity”; under “QVQLVESGGGLVQAGGSLRLSCAASGSIYGYTMGWNRQAPWKERELVAAINRRADRTYYADSVKGRFTISRDNAKNTVYLQMNSLKPEDTAVYYCNKGGWYTLGYWGQGTQVTVSS”, “high polyreactivity”. With “QVQLVESGGGLVQAGGSLRLSCAASGSTRYYAMGWYRHAPGKERELVASITTIGGSTSYADSVKGRFTISRDNAKNTVYLQMNSLKPEDTAVYYCATRSLVYSARAAGLIQFDHWGQGTQVNVSS” the entry was “low polyreactivity”; with “QVQLVESGGGLVQAGGSLRLSCAASGSIFGRNAMGWYRQAPGKERELVAAITGSTYYADSVKGRFTISRDNAKNTVYLQMNSLKPEDTAVYYCNADYDVGWTYDTEYNYWGQGTQVTVSS”, “low polyreactivity”; with “QVQLVESGGALVQAGGSLRLSCAASGTTFHSYPMGWYRQAPGKERELVAAISNGGRTNYADSVNGRFTISRDNAKNTVYLQMNSLKPVDTAVYYCAVRLYRDSSYYYWGQGTQVTVSS”, “low polyreactivity”.

For the sequence “QVQLVESGGVLVQAGGSLRLSCAASGSLFSRYAMGWYRQAPGKERELVAAISSSGGSTYYADSVKGRFTISRDNAKNTVYLQMISLKREDTAVYDCGAELRYYLVWLYYWGQGTQVSVSS”, the “polyreactivity (PSR sort gate)” value is “low polyreactivity”. Consider “QVQLVESGGGLVQAGGSLRLSCAASGSTFYINALGWYRQAPGKESELVAAITWNSDSTYYADSVKVRFTISRDNSKNTVYLQMNSLKPEDTAVYYCNHDRIIWGRLYEEGDYWGQGTQVTVSS”, for which the “polyreactivity (PSR sort gate)” value was “low polyreactivity”. With “QVQLVESGGGLVQAGGSLRLSCAASGFIFSQNVMGWYRQAPGKERELVAAISSSGGSTYYADSVKGRFTISRDNAKNTVYLQMNSLKREDTAVYYCAARPYVRFNYWGQGTQVTVSS” the entry was “high polyreactivity”; with “QVQLVESGGGLVQAGGSLRLSCAASGRTFGGYALGWYRQAPGKARELVAAITWSDTSTYYADSVKGRFRFSRDNAKNTVYLQMNSLKPEDTAVYYCAAEQWYWWDDYWGKGTQVTVSS”, “high polyreactivity”.

As to “QVQLVESGGGLVQAGGSLRLSCAASGSIFKYNTMGWYREAPGKESELVAAINGGGSTYYADSVKGRFTISRDNAKNTVYVTMNCLNPEDTAVYYCAKVQRTRGWSLDYWGHGTQVTVSS”, the “polyreactivity (PSR sort gate)” value is on record as “high polyreactivity”. With “QVQLVESGGRLVQAGGSLRLSCAASGRIFRRNAMGWYRQAPGKERELVAAISSSGGRTYYADSVKGRFTISRDNAKNTVYLQMNSLKPEDTAVYYCATRESLEPGYYWGQGTQVTVSS” the entry was “high polyreactivity”. With “QVQLVESGGGLVQAGGSLRLSCAASGFTFYYYAKGWYRQAPGKERELVAAINKKGGSTYADSVKGRFTISRDNAKNSVYLQLNSLKPEDTAVYYCYAVLTYTGVGYESWGQGTQVTVSS” the entry was “high polyreactivity”; with “QVQLVESGGGLVQAGGSLRLSCAASGRTFSPYMGWYRQAPGKEGELVAAISKSGGRTYYADSVKGRFTISRDNAKNTVYLQMNSLKPEDTAVYYCATTGNNYYYALYGYWGQGTQVTVSS”, “low polyreactivity”. Consider “QVQLVESGGGLVQAGGSLRLSCAASGRTFGTNAMGWYRLAPGKEWELVASISGGTRTNYADSVKGRFTISRDNAKNTVYLQMNSLKPEDTAVYSCAAEVGLPTWYTLPVDDYDYWGQGTQVTVSS”, for which the “polyreactivity (PSR sort gate)” value was “low polyreactivity”.

For the sequence “QVQLVESGGGLVQAGGSLRLICAASGRIFASYTMGWYRQAPGKERELVAGISRRGGSTYYADSVKGRFTISRDNAKNTVYLQMNSLKPEDTAVYYCAAVSSVFSVRYDYWGQGTQVTVSS”, the “polyreactivity (PSR sort gate)” value was “high polyreactivity”. With “QVQLVESGGGLVQVGGSLRLSCAASGITLSYYAMGWYRQAPGKEREFVASITVSRTSTYYADSVKGRFTISRDNAKNTVYLQMNSLKPEDTAVYYCAAYAYQYRFSGYGYWGQGTQVTVSS” the entry was “low polyreactivity”. With “QVQLVESGGGLDQAGRSLRLSCAASGLIFTDYTMGWYRQAPGKERELVATISTGGRTFYADSVKGRFTISRDNAKNTVYLQMNSLKPEDTAVYYCAKDQPGRAGFLFTPGLVDYDYWGQGTQVTVSS” the entry was “low polyreactivity”; with “QVQHVESGGGLVQARGSLRLRCAASGFIFRANAMGWYRHAPGKERELVATISRSGGSTSYADSVKGLFTISRDNAKNTVYLQMNSLKPEDSAVYYCAARKYTLRRKSRYGYWGQGTQVTVSS”, “high polyreactivity”. With “QVQLVESGGGLVQAGGSLRLSCAASGRTFTSYAMGWYRQAPGKERELVAGISSGGSTNYADSVKGRFTISRDNAKNTVYLQMNSLKPVDTAVYYCAAGFSPGTFYAPTLAFDYWGQGTQVTVSS” the entry was “low polyreactivity”. “QVQLVESGGGLVQAGGSLRLSSAASGRTFLRYAMGWYRQAPGKVRELVAAISWSGGRTYYADSVKGRFRISRDLAKNTVYLQMNSLKTEVTAVYYCNKGVLYGAHFYYWGQGTQVTGSS”: the “polyreactivity (PSR sort gate)” value is recorded as “high polyreactivity”. Under “QVQVVESGGGLVQAGGSLRLSCAASGRTFIGNAMGWYRQAPGKERELVAAMSRSGGSTSYADSVKGRFTISRDNAKNTVYLQMNSLKPEDTAVYYCAKGYRGYSYGYWGQGTQVSVSS” stands “high polyreactivity”. With “QVQLQESGGGLVLAGGSLRLSSAATGSISAQAYMGWDRQAPGKEREHVAGINYGDNTNYADSVKGRFTISRDNEHSVSADEQPESGRYRCVLLRGFLELFYYYIYWGQGTQVTVSS” the entry was “high polyreactivity”.
